How the values were obtained:
dansylated calmodulin [1] = molecular target: T1, dansylated calmodulin (rat, UniProt P0DP30 1-149, dansyl group covalently bound to CaM (position not given)); experiment: absence of Ca2+
dansylated calmodulin [2] = molecular target: T1, dansylated calmodulin; experiment: 3.9 uM Ca2+ (poor 1:1 fit, Bmax constrained)

B1: Kv7.2 CaM binding domain (residues 310–548), Q2AB WT (domain or fragment)
chain: not shown
Kd (dansylated calmodulin [1]): 4.8 nM | Kd (dansylated calmodulin [2]): 21.4 nM
